Positions count from the first letter of the chain named. In names and notes the source's numbering stands.
T1: human RXFP1 receptor (human, UniProt Q9HBX9 1-757)
T1 sequence: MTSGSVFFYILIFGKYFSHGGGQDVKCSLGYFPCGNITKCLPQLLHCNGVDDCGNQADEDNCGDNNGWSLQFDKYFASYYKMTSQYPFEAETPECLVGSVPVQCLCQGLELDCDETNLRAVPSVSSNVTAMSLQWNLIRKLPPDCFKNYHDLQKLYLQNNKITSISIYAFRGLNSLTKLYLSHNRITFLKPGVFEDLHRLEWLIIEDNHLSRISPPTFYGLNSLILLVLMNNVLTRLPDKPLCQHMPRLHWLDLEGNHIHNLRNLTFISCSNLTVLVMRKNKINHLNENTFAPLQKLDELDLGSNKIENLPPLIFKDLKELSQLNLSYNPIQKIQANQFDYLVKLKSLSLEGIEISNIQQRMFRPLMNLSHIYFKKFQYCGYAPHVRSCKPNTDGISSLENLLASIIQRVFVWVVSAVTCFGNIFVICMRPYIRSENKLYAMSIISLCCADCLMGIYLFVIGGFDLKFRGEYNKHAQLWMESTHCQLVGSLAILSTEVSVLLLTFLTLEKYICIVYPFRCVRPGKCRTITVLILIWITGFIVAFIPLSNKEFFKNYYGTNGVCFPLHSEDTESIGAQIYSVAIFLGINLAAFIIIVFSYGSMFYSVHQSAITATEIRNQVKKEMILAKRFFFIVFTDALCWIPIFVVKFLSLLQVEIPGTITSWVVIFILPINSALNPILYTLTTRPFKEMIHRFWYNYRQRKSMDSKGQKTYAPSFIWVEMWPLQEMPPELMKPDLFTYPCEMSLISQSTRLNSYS

B1: RLN Analog 13 (other)
chain: EVQLLESGGGLVQPGGSLRLSCAASGRYIDETAVAWFRQAPGKGREFVAGIGGGVDITYYADSVKGRFTISRDNSKNTLYLQMNSLRPEDTAVYYCAARPGRPLITSKVADLYPYWGQGTLVTVSSGGGGQGGGGQGGGGQGGGGQGGGGQALANKCCHVGCTKRSLARFCGGGSGGSGGGSWMEEVIKLCGRELVRAQIAICGMSTWS
notes: Single-chain fusion: VHH - (G4Q)5 L1 - RLN2 A chain (desA1-4) - L2 - RLN2 B chain (desB1)
B2: RLN Analog 6 (other)
chain: SWMEEVIKLCGRELVRAQIAICGMSTWSGGGSGGSGGGQLYSALANKCCHVGCTKRSLARFCPGPQPGPQPGPQPGPQPGPQPGPQPGPQPGPQEVQLLESGGGLVQPGGSLRLSCAASGRYIDETAVAWFRQAPGKEREFVAGIGGGVDITYYADSVKGRFTISRDNSKNTLYLQMNSLRPEDTAVYYCAARPGRPLITSKVADLYPYWGQGTLVTVSSPP
notes: Single-chain fusion: RLN2 B chain (desB1) - L2 - RLN2 A chain - PGPQ-repeat L1 - VHH (C-terminal)
B3: RLN Analog 10 (other)
chain: B2 chain with E138G
notes: Single-chain fusion: RLN2 B chain (desB1) - L2 - RLN2 A chain - (PGPQ)8 L1 - VHH (C-terminal)
B4: RLN Analog 9 (other)
chain: SWMEEVIKLCGRELVRAQIAICGMSTWSGGGSGGSGGGQLYSALANKCCHVGCTKRSLARFCGGGGQGGGGQGGGGQGGGGQGGGGQEVQLLESGGGLVQPGGSLRLSCAASGRYIDETAVAWFRQAPGKGREFVAGIGGGVDITYYADSVKGRFTISRDNSKNTLYLQMNSLRPEDTAVYYCAARPGRPLITSKVADLYPYWGQGTLVTVSSPP
notes: Single-chain fusion: RLN2 B chain (desB1) - L2 - RLN2 A chain - (G4Q)5 L1 - VHH (C-terminal)

These binders were tested against T2, cow serum albumin (cow, UniProt P02769 25-607) (assay: SPR (Biacore 8K), albumin immobilized on CM5 chip, 25 C, steady state).
T2 construct: Bought protein, immobilized on a CM5 chip by amine coupling; also called Cow SA

Kd [nM] | Binder
29 | B1

Molecular target: T2, cow serum albumin
Experiment: as above
Remark: another data set of the same source
Description: (§1) The immobilization of the serum albumin to a Series S Sensor Chip CM5 surface is performed according to the manufacturer's instructions (Amine Coupling Kit BR-1000-50). Briefly, carboxyl groups on the sensor chip surfaces (flow cell 1 and 2) are activated by injecting 70 μL of a mixture containing 75 mg/mL EDC and 11.5 mg/mL NHS at 10 μL/min. Human, cynomolgus monkey, mouse, rat, pig, dog, cow and rabbit serum albumin are diluted in 10 mM sodium acetate pH 4.0 (BR-1003-49) at […] and then injected over the activated chip surfaces (flow cell 2, channel 1 to 8) at 10 μL/min for 180 sec (human, mouse, rat, pig and cow serum albumin are obtained from Sigma Aldrich (St. Louis, MO); cynomolgus monkey serum albumin is obtained from Hölzel Diagnostika (Cologne, Germany); dog serum albumin is obtained from Molecular Innovations (Novi, MI); and rabbit serum albumin is obtained from Fitzgerald Industries Intl. (Acton, MA). The various serum albumins are covalently immobilized through free amines onto a carboxymethyl dextran-coated sensor chip CM5 targeting a surface density of about 100 (62-145) RU. Excess reactive groups on the surfaces (flow cell 1 and 2) are deactivated by injecting 70 μL of 1 M ETA HCl—NaOH pH 8.5.
150 μl of sample is individually injecting sequentially across the immobilized serum albumins on the chip's surface and dissociating for 600 sec at 50 μL/min flow rate at 25° C. The surface is regenerated by injecting 10 mM glycine-HCl pH 1.5 (BR-1003-54) at 50 μL/min for 100 sec. The resulting sensorgrams are analyzed using Biacore 8K Insight Evaluation Software ([…]).

Kd [nM] | Binder
130 | B2
100 | B3
84 | B4

What follows are binders tested against human RXFP2 receptor (human, UniProt Q8WXD0 1-754) (assay: cell-based or functional assay).

hRXFP2 EC50 nM GeoMean (cAMP CRE luciferase reporter assay, CHO cells expressing human RXFP2) [nM] | Binder
39 | B2
32 | B3
97 | B4

The binders below were run against T1, human RXFP1 receptor (assay: cell-based or functional assay).

hRXFP1 EC50 nM GeoMean (cAMP CRE luciferase reporter assay, CHO cells expressing human RXFP1) [nM] | Binder
15 | B2
14 | B3
5.2 | B4

Each binder was assayed against T3, human serum albumin (human, UniProt P02768 25-609) (assay: SPR (Biacore 8K), albumin immobilized on CM5 chip, 25 C, 1:1 kinetic fit).
T3 construct: Bought protein, immobilized on a CM5 chip by amine coupling; also called Human SA
Description: as §1
(§2) 150 μl of sample is individually injecting sequentially across the immobilized serum albumins on the chip's surface and dissociating for 600 sec at 50 μL/min flow rate at 25° C. The surface is regenerated by injecting 10 mM glycine-HCl pH 1.5 (BR-1003-54) at 50 μL/min for 100 sec. The resulting sensorgrams are analyzed using Biacore 8K Insight Evaluation Software (version 2.0.15.12933) 1:1 binding kinetics model fitting to calculate the binding kinetic parameter association rate (ka), dissociation rate (kd), and equilibrium dissociation constant (KD).

Kd [nM] | koff [s⁻¹] | kon [M⁻¹ s⁻¹] | Binder
0.51 | 0.00024 | 470000 | B2
0.37 | 0.0002 | 550000 | B3
0.19 | 0.00018 | 950000 | B4
0.14 | 0.00019 | 1.4e+06 | B1

What follows are binders tested against T4, mouse serum albumin (mouse, UniProt P07724 25-608) in the same assay as above.
T4 construct: Bought protein, immobilized on a CM5 chip by amine coupling; also called Mouse SA
Description: as §1, §2

Kd [nM] | koff [s⁻¹] | kon [M⁻¹ s⁻¹] | Binder
12 | 0.0076 | 630000 | B2
9.7 | 0.0072 | 740000 | B3
9.5 | 0.011 | 1.2e+06 | B4
2.6 | 0.0048 | 1.8e+06 | B1

These binders were tested against T5, cynomolgus monkey serum albumin (cynomolgus monkey, UniProt A2V9Z4 25-608) in the same assay as above.
T5 construct: Bought protein, immobilized on a CM5 chip by amine coupling; also called Cyno SA
Description: as §1, §2

Kd [nM] | koff [s⁻¹] | kon [M⁻¹ s⁻¹] | Binder
2.3 | 0.001 | 430000 | B2
1.5 | 0.00077 | 510000 | B3
0.86 | 0.00094 | 1.1e+06 | B4
0.49 | 0.0007 | 1.4e+06 | B1

Each binder was assayed against T6, rat serum albumin (rat, UniProt P02770 25-608) in the same assay as above.
T6 construct: Bought protein, immobilized on a CM5 chip by amine coupling; also called Rat SA
Description: as §1, §2

Kd [nM] | koff [s⁻¹] | kon [M⁻¹ s⁻¹] | Binder
9.7 | 0.0048 | 490000 | B2
7.8 | 0.0049 | 630000 | B3
8.2 | 0.0075 | 910000 | B4
2 | 0.0033 | 1.7e+06 | B1

These binders were tested against T7, pig serum albumin (pig, UniProt P08835 25-607) in the same assay as above.
T7 construct: Bought protein, immobilized on a CM5 chip by amine coupling; also called Pig SA
Description: as §1, §2

Kd [nM] | koff [s⁻¹] | kon [M⁻¹ s⁻¹] | Binder
24 | 0.0099 | 410000 | B2
20 | 0.0096 | 490000 | B3
14 | 0.012 | 870000 | B4
5 | 0.006 | 1.2e+06 | B1

These binders were tested against T8, dog serum albumin (dog, UniProt P49822 25-608) in the same assay as above.
T8 construct: Bought protein, immobilized on a CM5 chip by amine coupling; also called Dog SA
Description: as §1, §2

Kd [nM] | koff [s⁻¹] | kon [M⁻¹ s⁻¹] | Binder
4.1 | 0.002 | 480000 | B2
3.4 | 0.0021 | 630000 | B3
3.8 | 0.0036 | 950000 | B4
0.92 | 0.0017 | 1.9e+06 | B1

What follows are binders tested against T9, rabbit serum albumin (rabbit, UniProt P49065 25-608) (assay: SPR (Biacore 8K), albumin immobilized on CM5 chip, 25 C).
T9 construct: Bought protein, immobilized on a CM5 chip by amine coupling; also called Rabbit SA
Description: as §1, §2

Binder | binding result
B2 | no binding (tested: 1000 nM (highest concentration tested))
B3 | no binding (tested: 1000 nM (highest concentration tested))
B4 | no binding (tested: 1000 nM (highest concentration tested))
B1 | no binding (tested: 1000 nM (highest concentration tested))
